Key:
[1] = target: human IgG4 purified from human serum (human); experiment: latex agglutination inhibition, IgG4-sensitized latex, antibody in R1; free human IgG4 in sample 500 mg/dL
[2] = target: human IgG4 purified from human serum (human); experiment: latex agglutination inhibition, IgG4-sensitized latex, antibody in R1; free human IgG4 in sample 125 mg/dL
[3] = target: human IgG4 purified from human serum (human); experiment: latex agglutination inhibition, IgG4-sensitized latex, antibody in R1; free human IgG4 in sample 0.0 mg/dL
[4] = target: human IgG4 purified from human serum (human); experiment: latex agglutination inhibition, IgG4-sensitized latex, antibody in R1; free human IgG4 in sample 1000 mg/dL
[5] = target: human IgG4 purified from human serum (human); experiment: latex agglutination inhibition, IgG4-sensitized latex, antibody in R1; free human IgG4 in sample 31.3 mg/dL
[6] = target: human IgG4 purified from human serum (human); experiment: latex agglutination inhibition, IgG4-sensitized latex, antibody in R1; free human IgG4 in sample 250 mg/dL
[7] = target: human IgG4 purified from human serum (human); experiment: SPR (Biacore), IgG4 immobilized on chip by amino coupling, antibody as analyte
[8] = target: human IgG4 purified from human serum (human); experiment: SPR (Biacore), IgG4 immobilized

human IgG4 purified from human serum (human), sequence (constant, as listed by the source limits assumed): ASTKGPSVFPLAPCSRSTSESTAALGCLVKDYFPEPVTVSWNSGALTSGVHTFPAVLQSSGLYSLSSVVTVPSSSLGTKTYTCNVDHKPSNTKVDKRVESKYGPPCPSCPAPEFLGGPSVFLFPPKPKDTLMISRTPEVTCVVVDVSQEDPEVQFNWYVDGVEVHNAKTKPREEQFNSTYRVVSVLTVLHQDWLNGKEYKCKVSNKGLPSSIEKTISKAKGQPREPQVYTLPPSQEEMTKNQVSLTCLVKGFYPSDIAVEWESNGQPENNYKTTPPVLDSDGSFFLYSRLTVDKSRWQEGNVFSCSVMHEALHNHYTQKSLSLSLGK

commercially available antibody HP6025 (Millipore Corporation)
Absorbance change amount in 800 nm [1]: 0.0031
Absorbance change amount in 800 nm [2]: 0.0033
Absorbance change amount in 800 nm [3]: 0.003
Absorbance change amount in 800 nm [4]: 0.003
Absorbance change amount in 800 nm [5]: 0.0036
Absorbance change amount in 800 nm [6]: 0.0034
Kd [7]: 408 nM
koff [7]: 0.000681 s⁻¹
kon [7]: 1670 M⁻¹ s⁻¹
ratio of binding rate constant ka to those of the MaI4-08 and MaI4-09-produced antibodies [8]: < 0.01 fold
